The values that follow come from patent US20130123471A1.

In assay [1] the target is human CEA antigen (human) (UniProt P06731). In words: direct ELISA on coated CEA, 100 ng/ml, goat-anti-human IgG Fc-HRP secondary (background level).
Assay [2] shares this target. The assay is described as follows: competitive inhibition ELISA on coated CEA, 80 ng human IgG1 against 2.5 ng parent mouse antibody.
For assay [3] the target is unchanged. In words: ELISA, CEA coating, sample 100 ng/ml, goat-anti-human IgG Fc-HRP (background level). For orientation: In an ELISA, binding on a coated surface is turned into a signal by an enzyme label.
Assay [4] has the same target. The assay is described as follows: direct ELISA on coated CEA, 100 ng/ml, goat-anti-mouse IgG Fc-HRP secondary (background level; this secondary does not detect human Ig).
In assay [5] the target is anti-CEA humanized chimeric antibody. In words: direct ELISA: chimeric antibody (100 ng/ml) on coated CEA, detected with goat-anti-mouse IgG Fc-HRP (background level).
anti-CEA humanized chimeric antibody, sequence (VH, as listed by the source, chain 1 of 2): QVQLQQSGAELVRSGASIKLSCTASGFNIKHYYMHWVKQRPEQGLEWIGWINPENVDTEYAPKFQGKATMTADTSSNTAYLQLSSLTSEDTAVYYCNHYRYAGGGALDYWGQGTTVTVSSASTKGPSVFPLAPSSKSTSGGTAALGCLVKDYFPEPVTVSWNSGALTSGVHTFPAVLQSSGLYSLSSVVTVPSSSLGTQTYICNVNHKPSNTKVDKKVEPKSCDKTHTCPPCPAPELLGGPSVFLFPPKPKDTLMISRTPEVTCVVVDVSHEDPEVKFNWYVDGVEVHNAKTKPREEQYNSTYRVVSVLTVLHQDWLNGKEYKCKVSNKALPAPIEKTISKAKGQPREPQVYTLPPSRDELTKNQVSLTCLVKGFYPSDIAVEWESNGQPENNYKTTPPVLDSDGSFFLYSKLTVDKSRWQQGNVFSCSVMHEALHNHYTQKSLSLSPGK
anti-CEA humanized chimeric antibody, sequence (VL, as listed by the source, chain 2 of 2): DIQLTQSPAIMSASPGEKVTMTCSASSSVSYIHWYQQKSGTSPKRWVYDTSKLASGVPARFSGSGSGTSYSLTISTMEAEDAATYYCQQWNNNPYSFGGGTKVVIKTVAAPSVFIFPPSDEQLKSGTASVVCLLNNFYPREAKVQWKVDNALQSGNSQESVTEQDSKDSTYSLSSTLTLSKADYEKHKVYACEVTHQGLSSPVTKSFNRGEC

UniProt P06731, sequence (P06731 35-685 limits assumed): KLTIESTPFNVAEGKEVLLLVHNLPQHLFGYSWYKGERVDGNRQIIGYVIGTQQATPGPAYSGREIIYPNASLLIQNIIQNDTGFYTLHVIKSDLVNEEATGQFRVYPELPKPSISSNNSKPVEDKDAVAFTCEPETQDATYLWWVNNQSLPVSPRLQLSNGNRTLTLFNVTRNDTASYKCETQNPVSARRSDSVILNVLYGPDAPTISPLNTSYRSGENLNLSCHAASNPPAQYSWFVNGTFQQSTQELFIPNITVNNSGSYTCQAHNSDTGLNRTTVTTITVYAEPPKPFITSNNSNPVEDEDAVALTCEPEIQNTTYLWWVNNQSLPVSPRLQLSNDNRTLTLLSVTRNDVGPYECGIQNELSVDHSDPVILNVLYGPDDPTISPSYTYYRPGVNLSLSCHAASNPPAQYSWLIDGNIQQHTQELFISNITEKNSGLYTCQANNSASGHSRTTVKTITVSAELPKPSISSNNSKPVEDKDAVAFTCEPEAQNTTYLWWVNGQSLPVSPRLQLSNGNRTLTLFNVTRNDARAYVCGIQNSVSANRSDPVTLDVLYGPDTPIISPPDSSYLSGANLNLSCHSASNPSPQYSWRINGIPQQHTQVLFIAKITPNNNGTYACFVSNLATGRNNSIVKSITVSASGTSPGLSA

For the substance irrelevant antibody human IgG1, the OD490 in assay [1] worked out at 0.079 OD490; in assay [3] it was 0.072 OD490; in assay [4], 0.077 OD490. Further, the Inhibition rate (%) in assay [2] is -12.8%.

As to “goat-anti-mouse IgG Fc fragment-HRP (antibody)”, the OD490 in assay [5] amounted to 0.072 OD490.
